Experimental data taken from patent publication US20250332297A1, “DLL3-SPECIFIC BINDING CONSTRUCTS AND THEIR USE IN RADIOTHERAPY” (MOLECULAR PARTNERS AG, priority 2024, published 2025).

T1: hDLL3 ECD-Avi-Fckih (biotinylated extracellular domain of human DLL3, residues 27 to 466, Avi-tag, 3C site, … (human, UniProt Q9NYJ7 27-466, biotinylated at the Avi-tag))
T1 construct: The make-up of the second Fc chain of the knob-into-hole pair is not described; also called bio-DLL3; recombinant human DLL3; not shown: Avi-tag, 3C protease recognition site and Fc knob into hole
T1 sequence: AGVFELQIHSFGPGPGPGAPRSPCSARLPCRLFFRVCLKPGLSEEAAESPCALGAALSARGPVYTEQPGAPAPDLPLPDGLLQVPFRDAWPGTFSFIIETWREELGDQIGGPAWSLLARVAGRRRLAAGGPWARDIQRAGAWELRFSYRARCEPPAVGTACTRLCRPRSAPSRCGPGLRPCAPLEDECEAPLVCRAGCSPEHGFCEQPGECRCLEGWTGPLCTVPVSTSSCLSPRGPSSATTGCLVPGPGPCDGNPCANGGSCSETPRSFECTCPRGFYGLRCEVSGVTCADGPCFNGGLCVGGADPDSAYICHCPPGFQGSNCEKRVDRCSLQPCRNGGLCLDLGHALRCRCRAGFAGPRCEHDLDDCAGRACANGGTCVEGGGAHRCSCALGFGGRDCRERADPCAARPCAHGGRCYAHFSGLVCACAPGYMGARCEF

T2: Human DLL3 expressed on cells (HEK293T-hDLL3, NCI-H82, SHP-77, MC38-hDLL3) (human, UniProt Q9NYJ7 27-618)
T2 construct: also called DLL3 endogenously expressed on human cells
T2 sequence: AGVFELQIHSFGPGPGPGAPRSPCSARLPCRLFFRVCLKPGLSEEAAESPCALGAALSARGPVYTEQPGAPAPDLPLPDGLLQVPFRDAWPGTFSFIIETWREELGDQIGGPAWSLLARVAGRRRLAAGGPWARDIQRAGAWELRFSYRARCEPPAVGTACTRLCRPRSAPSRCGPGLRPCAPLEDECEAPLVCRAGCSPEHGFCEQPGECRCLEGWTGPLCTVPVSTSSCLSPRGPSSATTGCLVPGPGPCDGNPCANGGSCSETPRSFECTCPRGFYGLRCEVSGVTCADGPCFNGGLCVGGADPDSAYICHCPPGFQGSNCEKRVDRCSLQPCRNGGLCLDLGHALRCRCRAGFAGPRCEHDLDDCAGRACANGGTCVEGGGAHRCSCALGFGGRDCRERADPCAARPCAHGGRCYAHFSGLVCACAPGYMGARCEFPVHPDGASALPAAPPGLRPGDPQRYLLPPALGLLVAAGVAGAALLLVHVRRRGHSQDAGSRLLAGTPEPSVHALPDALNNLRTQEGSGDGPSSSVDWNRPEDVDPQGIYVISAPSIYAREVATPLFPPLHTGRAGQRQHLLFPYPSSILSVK

B1: High HSA affinity 2D DARPin: MAM160 with a GS at the N-terminus and a Cysteine-containing tag at the C-terminus (protein)
chain: GSDLGKKLLEAARAGQDDEVRELLKAGADVNAKDYFSHTPLHLAARNGHLKIVEVLLKAGADVNAKDFAGKTPLHLAADAGHLEIVEVLLKAGADVNAQDIFGKTPADIAADAGHEDIAEVLQKAAGSPTPTPTTPTPTPTTPTPTPTGSDLGTKLLSAAADGQDDEVRELLQAGADVNAKDLFGYTPLHLAAWRGHLEIVEVLLEAGADVNAKDAAGLTPLHLAAWFGHLEIVEVLLEAGADVNAQDVQGVTPADLAAKEGHEDIAEVLQQAAGSGSC
modifications: Ankyrin repeat protein with tag (GS-MAM160-tag)
B2: MAM282 (two domain ankyrin repeat protein, N-terminal His6-TEV tag) (designed binder)
chain: MRGSHHHHHHENLYFQDLGKKLLEAARAGQDDEVRELLKAGADVNAKDYFSHTPLHLAARNGHLKIVEVLLKAGADVNAKDFAGKTPLHLAADAGHLEIVEVLLKAGADVNAQDIFGKTPADIAADAGHEDIAEVLQKAAGSPTPTPTTPTPTPTTPTPTPTGSDLGKKLLAAAREGQDDEVRELLKAGADVNAKDIWGQTPLHIAAWFGHLEIVEVLLKAGADVNAKDQTGHTPLHLAAKFGHLEIVEVLLKAGADVNAQDLLGRTPADLAAEEGHEDIAEVLQKAA
notes: also called 2D DARPin
B3: MAM283 (two domain ankyrin repeat protein, N-terminal His6-TEV tag) (designed binder)
chain: MRGSHHHHHHENLYFQDLGKKLLEAARAGQDDEVRELLKAGADVNAKDYFSHTPLHLAARNGHLKIVEVLLKAGADVNAKDFAGKTPLHLAADAGHLEIVEVLLKAGADVNAQDIFGKTPADIAADAGHEDIAEVLQKAAGSPTPTPTTPTPTPTTPTPTPTGSDLGKKLLAAAADGQDDEVRELLQAGADVNAKDLFGYTPLHLAAWRGHLEIVEVLLEAGADVNAKDAAGETPLHLAAWFGHLEIVEVLLEAGADVNAQDVQGKTPADLAAKEGHEDIAEVLQQAA
notes: also called 2D DARPin
B4: MAM279 (two domain ankyrin repeat protein, N-terminal His6-TEV tag) (designed binder)
chain: MRGSHHHHHHENLYFQDLGKKLLEAARAGQDDEVRELLKAGADVNAKDYFSHTPLHLAARNGHLKIVEVLLKAGADVNAKDFAGKTPLHLAADAGHLEIVEVLLKAGADVNAQDIFGKTPADIAADAGHEDIAEVLQKAAGSPTPTPTTPTPTPTTPTPTPTGSDLGKKLLAAAAQGQDDEVRELLKAGANVNAKDLFGYTPLHLAAWRGHLEIVEVLLKAGADVNAKDAAGETPLHLAAWFGHLEIVEVLLKAGADVNAQDLQGKTPADLAAKEGHEDIAEVLQKAA
notes: Cleavage of the tag is not reported; also called 2D DARPin

What was measured:
[1] = target: Human DLL3 expressed on cells (HEK293T-hDLL3, NCI-H82, SHP-77, MC38-hDLL3) (human) (UniProt Q9NYJ7); assay: flow cytometry titration on HEK293T-hDLL3 cells, with HSA
[2] = target: Human DLL3 expressed on cells (HEK293T-hDLL3, NCI-H82, SHP-77, MC38-hDLL3) (human) (UniProt Q9NYJ7); assay: flow cytometry titration on HEK293T-hDLL3 cells, without HSA
[3] = target: T3, mouse serum albumin (Mus musculus, UniProt P07724); assay: SPR binding of 2D DARPins with different HSA binders to mouse serum albumin (Example 3); details: immobilized MSA, Cysteine capped with IAM, 1:1 Langmuir, Table 12
T3 construct: purchased Sigma-Aldrich

[4] = target: human serum albumin (Homo sapiens, UniProt P02768)
[5] = target: T1, hDLL3 ECD-Avi-Fckih (biotinylated …); assay: SPR (ProteOn), biotinylated hDLL3 ECD-Avi-Fckih on chip, DARPin as analyte, 1:1 Langmuir fit
Experimental: Kinetic binding parameters and binding affinities of two domain (2D) ankyrin repeat proteins comprising an ankyrin repeat domain with binding specificity for DLL3 and an ankyrin repeat domain with binding specificity for serum albumin were determined by surface plasmon resonance (SPR) multi-trace analysis.
In brief, a SPR assay was used to determine the binding kinetics to the target human DLL3. The data were generated using BioRad ProteOn instrument in SPR running buffer (PBS, pH 7.4 containing 0.005% Tween 20®). […] The chip was coated with biotinylated target (bio-DLL3) to reach a signal intensity of 1780 RU. […] Each injection was followed by a regeneration step with 16 mM H₃PO₄ for 18 s. […] The bio-DLL3 target used was as described in U.S. 63/550,951, i.e. the extracellular domain (ECD) of human DLL3 protein (Q9NYJ7, Gene ID: 10683, residues 27 to 466; purchased from Evitria) linked via an Avi-tag (for site-directed biotinylation), followed by a 3C protease recognition site, to a Fc knob into hole (hDLL3 ECD-Avi-Fcₖᵢₕ).

[6] = target: T4, human serum albumin (human, UniProt P02768 25-609); assay: SPR (Bruker Sierra SPR-32), HSA on chip, DARPin as analyte, 1:1 Langmuir fit
T4 construct: also called HSA
Experimental: (§1) Similarly, a SPR assay was used to determine the binding kinetics to human or mouse serum albumin. […] All analytes (3-fold dilution ranging from 1000-12.35 nM) were injected in succession for 240 s (25 μl/min) and dissociation was recorded for 600 s (25 μl/min).

[7] = target: T2, Human DLL3 expressed on cells …; assay: flow cytometry titration on HEK293T-hDLL3 cells, with HSA
Experimental: (§2) Cell binding titration assays were performed for selected His-tagged single domain (1 D) and two domain (2D) designed ankyrin repeat proteins to determine binding to human DLL3 expressed on HEK293T-huDLL3 cells in absence and presence of human serum albumin. […] HEK293T-hDLL3 cells are HEK293T cells that were stably transfected to express human DLL3 on their surface.
(§3) In brief, 1×10⁵ cells/well were resuspended in 100 μl DARPin dilution (500 nM, 1:5 serial diluted) and incubated for 1 h at 4° C. Cells were washed twice with PBS and resuspended in 100 μl anti-DARPin antibody (rabbit anti-DARPin 1.4.8) and LIVE/DEAD fixable cell stain (1:1000, Thermo Fisher #L34957). This step was performed in absence and presence of 10 pM Human Serum Albumin (CSL Behring #150570). After incubation and washing, cells were incubated with detection antibody for 30 minutes (Goat […] IgG (H+L), AF647, Thermo Fisher #21445). Cells were fixed (Paraformaldehyde Solution, LucernaChem) and acquired at Attune N×T (Thermo Life Technologies). Raw fcs files were exported and analyzed using FlowJo software. MFI values of live AF647-positive cells were exported from FlowJo and plotted using GraphPad Prism software.

[8] = target: T2, Human DLL3 expressed on cells …; assay: flow cytometry titration on HEK293T-hDLL3 cells, without HSA
Experimental: as §2, §3

[9] = target: T2, Human DLL3 expressed on cells …; assay: flow cytometry titration on NCI-H82 cells (endogenous DLL3), with 10 uM HSA
Experimental: (§4) Furthermore, cell binding titration assays were also performed with selected two domain (2D) designed ankyrin repeat proteins to determine binding to human cells expressing DLL3 endogenously, in absence and presence of human serum albumin. For this purpose, NCI-H82 cells were used, a human lung carcinoma cell line which endogenously expresses DLL3 on the surface. […] A non-binding DARPin comprising SEQ ID NO: 22 was used as a negative control.
as §3, with “diluted in PBS, 2% FBS)” for “diluted)”, “C. This step was performed in absence and presence of 10 μM Human Serum Albumine (CSL Behring #150570).” for “C.”, “PBS, 2% FBS” for “PBS”, “LIVE/DEAD” for “LIVE/DEAD fixable”, “Biolegend #423106).” for “Thermo Fisher #L34957). This step was performed in absence and presence of 10 pM Human Serum Albumin (CSL Behring #150570).”, “Solution, TCL119,” for “Solution,”

[10] = target: T5, mouse serum albumin (mouse, UniProt P07724 25-608); assay: SPR (Bruker Sierra SPR-32), MSA on chip, DARPin as analyte, 1:1 Langmuir fit
T5 construct: also called MSA
Experimental: as §1

[11] = target: T2, Human DLL3 expressed on cells …; assay: flow cytometry titration on NCI-H82 cells (endogenous DLL3), without HSA
Experimental: as §4
as §3, with “diluted in PBS, 2% FBS)” for “diluted)”, “C. This step was performed in absence and presence of 10 μM Human Serum Albumine (CSL Behring #150570).” for “C.”, “PBS, 2% FBS” for “PBS”, “LIVE/DEAD” for “LIVE/DEAD fixable”, “Biolegend #423106).” for “Thermo Fisher #L34957). This step was performed in absence and presence of 10 pM Human Serum Albumin (CSL Behring #150570).”, “Solution, TCL119,” for “Solution,”

T5 sequence (P07724 25-608 limits assumed): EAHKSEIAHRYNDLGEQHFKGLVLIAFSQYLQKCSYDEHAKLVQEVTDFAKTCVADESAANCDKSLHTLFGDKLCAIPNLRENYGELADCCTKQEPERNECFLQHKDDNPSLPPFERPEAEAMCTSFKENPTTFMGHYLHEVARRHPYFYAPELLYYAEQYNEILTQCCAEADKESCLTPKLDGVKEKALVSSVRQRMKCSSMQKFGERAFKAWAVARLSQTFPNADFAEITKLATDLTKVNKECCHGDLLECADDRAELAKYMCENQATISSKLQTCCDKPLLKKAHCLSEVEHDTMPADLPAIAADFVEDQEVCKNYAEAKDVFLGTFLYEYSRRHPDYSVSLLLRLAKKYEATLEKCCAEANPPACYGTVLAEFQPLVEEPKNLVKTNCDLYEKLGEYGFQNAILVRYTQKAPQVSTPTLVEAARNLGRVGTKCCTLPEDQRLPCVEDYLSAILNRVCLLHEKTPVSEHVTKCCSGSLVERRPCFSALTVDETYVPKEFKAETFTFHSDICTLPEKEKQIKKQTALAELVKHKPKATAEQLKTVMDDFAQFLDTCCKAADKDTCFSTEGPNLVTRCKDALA
T3 sequence (P07724 25-608): as the sequence (P07724 25-608 limits assumed) above

Molecule | EC50 [1] [nM] | EC50 [2] [nM] | Koff MSA [3] [s⁻¹] | Kon MSA [3] [M⁻¹ s⁻¹] | Koff HSA [4] [s⁻¹] | Kon HSA [4] [M⁻¹ s⁻¹] | fold higher binding affinity to HSA than the Low HSA affinity 2D DARPin ([4]; SPR KD comparison) | Kd [5] [nM] | koff [5] [s⁻¹] | kon [5] [M⁻¹ s⁻¹] | Kd [6] [nM] | koff [6] [s⁻¹] | kon [6] [M⁻¹ s⁻¹] | EC50 [7] [nM] | EC50 [8] [nM] | EC50 [9] [nM] | Kd [10] [nM] | koff [10] [s⁻¹] | kon [10] [M⁻¹ s⁻¹] | EC50 [11] [nM]
Rova antibody | 0.3 | 0.1 | – | – | – | – | – | – | – | – | – | – | – | – | – | – | – | – | – | –
B1 | – | – | 0.0345 | 133000 | 0.0311 | 105000 | about 10 fold | – | – | – | – | – | – | – | – | – | – | – | – | –
B2 | – | – | – | – | – | – | – | 3.03 | 3.79e-05 | 12500 | 74.3 | 0.00889 | 120000 | 19.6 | 21.2 | 2.6 | 335 | 0.0354 | 106000 | 2.6
B3 | – | – | – | – | – | – | – | 0.953 | 1.79e-05 | 18800 | 103 | 0.00924 | 89500 | 18.4 | 22.1 | 8.1 | 507 | 0.0378 | 74700 | 5.4
B4 | – | – | – | – | – | – | – | 0.616 | 1.44e-05 | 23300 | 75 | 0.00923 | 123000 | 16.3 | 14.9 | 2.1 | 367 | 0.0335 | 91200 | 2.5
